Laboratory results taken from patent US20210230664.

Tested on: dCas9 (SpCas9 D10A/H840A) D10A,H840A (Streptococcus pyogenes)
Details: nanochannel imaging; NEB Buffer 3, BSA, 37 C 60 min; about 16% of labels off-target; PAM not stated

Substance: DUF1220 crRNA (with tracrRNA-ATTO647) ; linearized BAC DNA with DUF1220 repeats
- activity (% target sites labeled): 86
